This experiment concerns the target T1, MMP-26 (human).
T1 sequence: ASDF
The experiment is described as follows: cell-based or functional assay.

B1: D07 (antibody, human IgG4, V domains shown)
VH: EVQLLESGGGLVQPGGSLRLSCAASGFTFSEYNMFWVRQAPGKGLEWVSYIYSSGGSTDYADSVKGRFTISRDNSKNTLYLQMNSLRAEDTAVYYCARVGIAARPFDPWGQGTLVTVSS
VL: QSELTQPASVSGSPGQSITISCTGTNSDIGGYNYVSWYQQHPGKVPKLLIFEVNNRPSGVSSRFSGSKSGDTASLTISGLQPEDEAVYYCGSFTVSVTYVFGTGTKVTVLG
Turning to B1, the % Inhibition of JEG-3 cell invasion, 5 µg/ml (first test) amounted to 21% and the % Inhibition of JEG-3 cell invasion, 25 µg/ml (first test) was 36%.

B2: D06 (antibody, human IgG4, V domains shown)
VH: EVQLLESGGGLVQPGGSLRLSCAASGFTFSGYIMEWVRQAPGKGLEWVSVIVSSGGFTMYADSVKGRFTISRDNSKNTLYLQMNSLRAEDTAVYYCARVGDSKGGYYLDYWGQGTLVTVSS
VL: DIQMTQSPSSLSASVGDRVTITCRTSQIINTYLNWYQQKPGKAPKLLIYAASTLQGGVPSRFSGSGSGTDFTLTIKSLQPDDFATYYCQQSYTSPRTFGQGTKVEIKR
B2 yielded a % Inhibition of JEG-3 cell invasion, 5 µg/ml (first test) of 0% and a % Inhibition of JEG-3 cell invasion, 25 µg/ml (first test) of 35%.

B3: D08 (antibody, human IgG4, V domains shown)
VH: EVQLLESGGGLVQPGGSLRLSCAASGFTFSFYAMWWVRQAPGKGLEWVSRIYSSGGKTWYADSVKGRFTISRDNSKNTLYLQMNSLRAEDTAVYYCARVGMSTYAFDIWGQGTMVTVSS
VL: DIQMTQSPSSLSASVGDRVTITCRASQSISDYLNWYQQKPGKAPDLLIYAASSLQSGVPSRFSGSGSGTDFTLTVSSLQPEDFATYFCQQSYSIPLTFGGGTKVEITR
Regarding B3, the % Inhibition of JEG-3 cell invasion, 1 µg/ml (further test) is 56%; the % Inhibition of JEG-3 cell invasion, 5 µg/ml (first test) is 36%; the % Inhibition of JEG-3 cell invasion, 5 µg/ml (further test) is 50%; the % Inhibition of JEG-3 cell invasion, 25 µg/ml (first test) is 35%. This molecule also showed a % Inhibition of JEG-3 cell invasion, 25 µg/ml (further test) of 76% and a % Inhibition of JEG-3 cell invasion, 50 µg/ml (further test) of 53%.

B4: C12 (antibody, V domains shown)
VH: EVQLLESGGGLVQPGGSLRLSCAASGFTFSAYNMMWVRQAPGKGLEWVSRIYPSGGYTLYADSVKGRFTISRDNSKNTLYLQMNSLRAEDTAVYYCARQKLMIRAVRPFDYWGQGTLVTVSS
VL: QSELTQPPSVSVSPAQTASITCSGDKLGDKYACWYQQKPGQSPVLVIYEDTKRPSGIPERFSGSNSGNTATLTISGTQVMDEADYYCQVWDSSTAVFGGGTKLTVLG
On to B4, for which the % Inhibition of JEG-3 cell invasion, 1 µg/ml (further test) was found to be 36%; the % Inhibition of JEG-3 cell invasion, 5 µg/ml (first test) came out at 49%; the % Inhibition of JEG-3 cell invasion, 5 µg/ml (further test) was 35%; the % Inhibition of JEG-3 cell invasion, 25 µg/ml (first test) came out at 38%. The % Inhibition of JEG-3 cell invasion, 25 µg/ml (further test) worked out at 49% and the % Inhibition of JEG-3 cell invasion, 50 µg/ml (further test) was found to be 27%.

B5: D02 (antibody, human IgG4, V domains shown)
VH: EVQLLESGGGLVQPGGSLRLSCAASGFTFSWYDMAWVRQAPGKGLEWVSRIVPSGGHTSYADSVKGRFTISRDNFKNTLYLQMNSLRAEDTAVYYCARRASRPEFFDYWGQGALVTVSS
VL: DIQMTQSPSFLSASVGDRVTITCRASQGISTYLAWYQQKPGKAPKVLIYTASTLQSGVPSRFSGSGSGTEFTLTISSLQPEDFATYYCQQSYITPPEVTFGPGTKVDIKR
Consider B5, for which the % Inhibition of JEG-3 cell invasion, 5 µg/ml (first test) was 36% and the % Inhibition of JEG-3 cell invasion, 25 µg/ml (first test) is 25%.

B6: D04 (antibody, human IgG4, V domains shown)
VH: EVQLLESGGGLVQPGGSLRLSCAASGFTFSDYQMMWVRQAPGKGLEWVSRISPSGGMTRYADSVKGRFTISRDNSKNTLYLPMNSLRAEDTAVYYCARSGPYYFDYWGQGTLVTVSS
VL: DIQMTQSPSSLSASVGDRVAITCRASQSIDTYLNWYQQKPGKAPKLLIYAASKLEDGVPSRFSGSGTGTDFTLTIRSLQPEDFASYFCQQSYSSPGITFGPGTKVEIKR
B6 yielded a % Inhibition of JEG-3 cell invasion, 1 µg/ml (further test) of 47%; a % Inhibition of JEG-3 cell invasion, 5 µg/ml (first test) of 38%; a % Inhibition of JEG-3 cell invasion, 5 µg/ml (further test) of 34%; a % Inhibition of JEG-3 cell invasion, 25 µg/ml (first test) of 34%. Moreover, the % Inhibition of JEG-3 cell invasion, 25 µg/ml (further test) was 45% and the % Inhibition of JEG-3 cell invasion, 50 µg/ml (further test) amounted to 52%.

B7: C11 (antibody, human IgG4, V domains shown)
VH: EVQLLESGGGLVQPGGSLRLSCAASGFTFSEYPMWWVRQAPGKGLEWVSWIYPSGGNTDYADSVKGRFTISRDNSKNTLYLQMNSLRAEDTAVYYCAIPYCSSSSCPLHWGQGTLVTVSS
VL: QSELTQPPSASGSPGQSVTISCTGTSSDVGGYNYVSWYQQHPDKAPKLLIYEVTQRPSGVPDRFSGSRSGNTASLTVSGLQAEDEADYYCSSYAGRNNLYVFGPGTKVTVLG
Turning to B7, the % Inhibition of JEG-3 cell invasion, 5 µg/ml (first test) worked out at 28% and the % Inhibition of JEG-3 cell invasion, 25 µg/ml (first test) turned out to be 29%.

B8: C04 (antibody, human IgG4, V domains shown)
VH: EVQLLESGGGLVQPGGSLRLSCAASGFTFSMYFMVWVRQAPGKGLEWVSWIGSSGGETPYADSVKGRFTISRDNSKNTLYLQMNSLRAEDTAVYYCARGYSSGWYVMGDYWGQGTLVTVSS
VL: QSALTQPPSASGTPGQRVTISCSGTSSNIGSHYVFWYQQLPGTAPKLLIHRNDERPSGVPDRFSGSKSGTSASLAISGLQSEDEADYYCATWDDNLNGPVFGGGTKLT
Regarding B8, the % Inhibition of JEG-3 cell invasion, 1 µg/ml (further test) came out at 1%; the % Inhibition of JEG-3 cell invasion, 5 µg/ml (first test) is 35%; the % Inhibition of JEG-3 cell invasion, 5 µg/ml (further test) amounted to 11%; the % Inhibition of JEG-3 cell invasion, 25 µg/ml (first test) was 36%. The same molecule yielded a % Inhibition of JEG-3 cell invasion, 25 µg/ml (further test) of 18% and a % Inhibition of JEG-3 cell invasion, 50 µg/ml (further test) of 32%.

B9: C05 (antibody, human IgG4, V domains shown)
VH: EVQLLESGGGLVQPGGSLRLSCAASGFTFSSYQMDWVRQAPGKGLEWVSRIVPSGGDTTYADSVKGRFTISRDNSKNTLYLQMNSLRAEDTAVYYCARHVYYDSSDYFPNPFDYWGQGTLVTVSS
VL: QSELTQPPSVSGTPGQRVTISCSGSSSNIGSEYVYWFQQLPGTAPRLLIYRNDQRPSGVPDRFSGSKSGTSASLAISGLRSEDETDYYCTTWDDSLSGPVFGGGTKLTVLG
With B9, the % Inhibition of JEG-3 cell invasion, 5 µg/ml (first test) was 16% and the % Inhibition of JEG-3 cell invasion, 25 µg/ml (first test) came out at 32%.

B10: C08 (antibody, human IgG4, V domains shown)
VH: EVQLLESGGGLVQPGGSLRLSCAASGFTFSYYEMMWVRQAPGKGLEWVSSISPSGGPTMYADSVKGRFTISRDNSKNTLYLQMNSLRAEDTGVYYCARKMGRVGYCSSTSCYRDDYYGMDVWGQGTTVTVSS
VL: DIQMTQSPPSLSALVGDRVTITCRASQSISRYVNWYQQKPGKAPKVLIYAASIVENGVPSRFSGSGSGTDFSLTISSLQPEDFATYYCQQTYSTPLTFGGGTKLAIKR
Molecule B10 yielded a % Inhibition of JEG-3 cell invasion, 1 µg/ml (further test) of 34%; a % Inhibition of JEG-3 cell invasion, 5 µg/ml (first test) of 45%; a % Inhibition of JEG-3 cell invasion, 5 µg/ml (further test) of 42%; a % Inhibition of JEG-3 cell invasion, 25 µg/ml (first test) of 49%. Further, the % Inhibition of JEG-3 cell invasion, 25 µg/ml (further test) worked out at 49% and the % Inhibition of JEG-3 cell invasion, 50 µg/ml (further test) was 62%.

For the origin of these results see US7514534.
